This note sets out measurements from PMC9666519.

Experiment [1] concerns the target 20S proteasome core particle of Vairimorpha necatrix (Vairimorpha necatrix (endogenous in spores)). The experiment in a line: cryo-EM structure; 26S proteasomes from germinated sporoplasms, purified with 20 mM ATP; 8.3 Å map without symmetry, AlphaFold models of the RP subunits docked as rigid bodies.
For experiment [2] the target is unchanged. The experiment is described as follows: cryo-EM structure; proteasomes from dormant V. necatrix spores, bead-beaten without ATP, lysate on Superose 6 Increase in 50 mM Tris pH 7.4, 300 mM NaCl, 5 mM DTT; 2.8 Å map of the 20S CP, C2 symmetry.

In experiment [1], “19S regulatory particle of the Vairimorpha necatrix proteasome (complex)” registered a percent of proteasome particles capped by RP of 12% and a percent of proteasome particles capped by RP on both ends of 1.5%.

Consider “PI31-like protein (PI31L) of Vairimorpha necatrix (natural protein)”, for which the stoichiometry N (PI31L per 20S core particle) in experiment [2] worked out at 2.
